Experimental data from publication PMC8874921, “Evolved DNA Duplex Readers for Strand-Asymmetrically Modified 5-Hydroxymethylcytosine/5-Methylcytosine CpG Dyads”.

Molecular target: wt MeCP2 MBD (Homo sapiens, UniProt P51608 90-181)
Test: EMSA; EMSA; unlabeled oligo-dA/dT duplex (o2968/o2969) listed as binding trap; buffer, salt, pH and temperature not shown in the material
Conditions: protein: recombinant, tags: N-terminal FLAG-MBP-FactorXa-TEV, C-terminal 7xHis, label: 6-FAM 5' strand 1

wt MeCP2 MBD, sequence (P51608 90-181): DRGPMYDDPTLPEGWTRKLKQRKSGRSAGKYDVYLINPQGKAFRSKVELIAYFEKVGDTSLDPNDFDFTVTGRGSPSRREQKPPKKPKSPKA

B1: C/mC oligo-dA/dT (EMSA) (dsDNA)
DNA 1: AAAAAAAAAAACGAAAAAAAAAAA
DNA 2: TTTTTTTTTTTCGTTTTTTTTTTT
modifications: 5mC at C12 of strand 1 (o2967); strand 2 unmodified (o2904)
Kd (blunt): 43.8 ± 3.64 nM

B2: hmC/mC oligo-dA/dT (EMSA) (dsDNA)
DNA 1: AAAAAAAAAAACGAAAAAAAAAAA
DNA 2: TTTTTTTTTTTCGTTTTTTTTTTT
modifications: 5hmC at C12 of strand 1 (o3115); 5mC at C12 of strand 2 (o2909)
Kd (blunt): 47.4 ± 12.4 nM

B3: hmC/C oligo-dA/dT (EMSA) (dsDNA)
DNA 1: AAAAAAAAAAACGAAAAAAAAAAA
DNA 2: TTTTTTTTTTTCGTTTTTTTTTTT
modifications: 5hmC at C12 of strand 1 (o3115); strand 2 unmodified (o2904)
Kd (blunt): 211 ± 19.5 nM

B4: hmC/hmC oligo-dA/dT (EMSA) (dsDNA)
DNA 1: AAAAAAAAAAACGAAAAAAAAAAA
DNA 2: TTTTTTTTTTTCGTTTTTTTTTTT
modifications: 5hmC at C12 of strand 1 (o3115); 5hmC at C12 of strand 2 (o3112)
Kd: 198 ± 39.1 nM

B5: mC/mC oligo-dA/dT (EMSA) (dsDNA)
DNA 1: AAAAAAAAAAACGAAAAAAAAAAA
DNA 2: TTTTTTTTTTTCGTTTTTTTTTTT
modifications: 5mC at C12 of strand 1 (o2967); 5mC at C12 of strand 2 (o2909)
Kd (blunt): 3.9 ± 0.636 nM
